According to patent US5621079A, “Neuropeptide Y receptor” (Merck & Co., Inc., priority 1995, dated 1997):

What follows are substances tested against T1, murine NPY Yx receptor (Mus musculus, UniProt Q61212) (assay: 125I-PYY competition binding to membranes of COS-7 cells transfected with the murine NPY Yx receptor). Conditions: COS-7 membranes (50 μg protein), 125I-PYY 90 pM, 2 hours at room temperature; read-out: IC50 (concentration of peptide causing 50% inhibition of 125I-PYY binding).
T1 construct: identified a 371 amino acid open reading frame; expressed in transfected cells; host or cells: COS-7 cells, transient (pcDNA3 vector pVE2863), membranes
T1 sequence (Q61212 1-371): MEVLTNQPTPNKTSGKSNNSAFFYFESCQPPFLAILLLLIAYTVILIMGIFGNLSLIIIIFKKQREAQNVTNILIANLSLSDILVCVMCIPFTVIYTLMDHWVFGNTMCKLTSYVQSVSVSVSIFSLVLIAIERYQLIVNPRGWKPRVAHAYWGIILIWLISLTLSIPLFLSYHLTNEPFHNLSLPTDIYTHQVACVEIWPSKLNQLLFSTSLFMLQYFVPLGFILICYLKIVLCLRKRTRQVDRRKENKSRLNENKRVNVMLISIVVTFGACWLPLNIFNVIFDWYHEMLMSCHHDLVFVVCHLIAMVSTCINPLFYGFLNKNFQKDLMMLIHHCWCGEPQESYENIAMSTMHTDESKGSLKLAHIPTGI
Method: Using electroporation, COS-7 cells were transfected with the pcDNA3 expression vector containing the genomic DNA for the murine NPY Yx receptor (pVE2863). Two days post transfection, cells were dissociated with enzyme-free dissociation buffer, centrifuged at 1000 rpm for 10 minutes at 4° C., and resuspended in 10 mM Tris, pH 7.4 containing […] (phenylmethylsulfonyl fluoride), 10 μM phosphoramidon, and 40 μg/ml bacitracin. The cell suspension was homogenized with a glass homogenizer, and centrifuged at 2200 rpm for 10 minutes at 4° C. to remove cell debris. The plasma membrane fraction was recovered by centrifuging the supernatant at 18,000 rpm in a Sorvall SS-34 rotor for 15 minutes at 4° C. The membrane pellet was resuspended in the Tris/PMSF/phosphoramidon/bacitracin buffer by trituration 5 times using a 25 g needle and syringe. The membranes were stored frozen at -80° C. until use.
After 2 hours at room temperature, the incubation was filtered over GF/C filters, and the radioactivity bound to the filters was quantified with a Packard gamma counter.

Row | IC50 | Substance
1 | 16 nM | NPY2-36 [NPY(2-36)]
2 | 134 nM | NPY13-36 [NPY(13-36)]
3 | 9 nM | [Leu31, Pro34]NPY [[Leu^31, Pro^34]NPY]

Row | Substance | IC50
4 | Neuropeptide Y [NPY] | 6 nM
